From publication PMC10611921, “Assessing the dynamics and macromolecular interactions of the intrinsically disordered protein YY1” (Bioscience Reports, 2023) come the findings set out here.

Series [1] deals with T1, FOXP2 FHD (UniProt O15409 504-594).
T1 sequence: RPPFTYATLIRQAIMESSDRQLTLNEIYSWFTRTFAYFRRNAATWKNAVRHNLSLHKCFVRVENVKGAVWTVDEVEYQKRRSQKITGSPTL
Briefly: EMSA; single complex, no YY1; Anisotropy: 10 mM HEPES pH 7.5, 100 mM NaCl, 20 C; EMSA: 0.5 uM DNA, 20% (v/v) of binding buffer (10 mM HEPES pH 7.5, 1 mM MgCl2, 100 mM KCl, 10% glycerol, 0.1). To be noted: protein: recombinant; tags: His6 removed with thrombin. In general terms: A gel shift assay detects complexes by their altered migration in electrophoresis.

For series [2], the target named is T1, FOXP2 FHD. In words: EMSA; control gel; no specific binding; Anisotropy: 10 mM HEPES pH 7.5, 100 mM NaCl, 20 C; EMSA: 0.5 uM DNA, 20% (v/v) of binding buffer (10 mM HEPES pH 7.5, 1 mM MgCl2, 100 mM KCl, 10% glycerol, 0.1). To be noted: protein: recombinant; tags: His6 removed with thrombin.
The target in series [3] is YY1 labelled with NTA ATTO 550 (UniProt P25490 1-414). Briefly: fluorescence anisotropy; apparent KD; 0.2 uM labelled YY1, DNA titrated; 100 mM NaCl; Anisotropy: 10 mM HEPES pH 7.5, 100 mM NaCl, 20 C; EMSA: 0.5 uM DNA, 20% (v/v) of binding buffer (10 mM HEPES pH 7.5, 1 mM MgCl2, 100 mM KCl, 10% glycerol, 0.1). To be noted: protein: recombinant; tags: N-terminal His6 (NTA ATTO 550 label).

In series [4] the target is T2, Yin Yang 1 (YY1), full-length, N-terminal hexahistidine tag (UniProt P25490 1-414, NTA ATTO 550 on the N-terminal hexahistidine tag (the labelled copy in the anisotropy assays)).
T2 construct: YY1 (Yin Yang 1), full-length construct; A heterogeneous mixture of oligomers in solution; In the anisotropy assays 0.2 μM YY1 carried NTA ATTO 550 on the His tag; the titrated YY1 was unlabelled; also called Ying Yang 1; source: T7 cells (Genscript), pET-11A plasmid, purified (IMAC on cobalt, size exclusion chromatography); not shown: His6, N-terminal, kept
In words: fluorescence polarisation; fluorescence anisotropy; unlabelled FOXP2 FHD titrated into 0.2 μM YY1 labelled with NTA ATTO 550 in the presence of 10 μM background AAV P5 promoter DNA (YY1 specific); 100 mM NaCl, 10 mM HEPES pH 7.5, 20°C. To be noted: both partners purified.

Series [5] deals with T2, Yin Yang 1 (YY1), full-length, …. Briefly: fluorescence polarisation; fluorescence anisotropy; unlabelled FOXP2 FHD titrated into 0.2 μM YY1 labelled with NTA ATTO 550; 500 mM NaCl, 10 mM HEPES pH 7.5, 20°C; single site model, apparent KD. To be noted: both partners purified.
Series [6] shares this target. In words: fluorescence polarisation; fluorescence anisotropy; unlabelled FOXP2 FHD titrated into 0.2 μM YY1 labelled with NTA ATTO 550; 300 mM NaCl, 10 mM HEPES pH 7.5, 20°C; single site model, apparent KD. To be noted: both partners purified. A general note: Polarisation of emitted light reports the rotation of a fluorescent probe.
Series [7] shares this target. Briefly: fluorescence polarisation; fluorescence anisotropy; unlabelled FOXP2 FHD titrated into 0.2 μM YY1 labelled with NTA ATTO 550; 100 mM NaCl, 10 mM HEPES pH 7.5, 20°C; single site model, apparent KD. To be noted: both partners purified.

T2 sequence (P25490 whole entry): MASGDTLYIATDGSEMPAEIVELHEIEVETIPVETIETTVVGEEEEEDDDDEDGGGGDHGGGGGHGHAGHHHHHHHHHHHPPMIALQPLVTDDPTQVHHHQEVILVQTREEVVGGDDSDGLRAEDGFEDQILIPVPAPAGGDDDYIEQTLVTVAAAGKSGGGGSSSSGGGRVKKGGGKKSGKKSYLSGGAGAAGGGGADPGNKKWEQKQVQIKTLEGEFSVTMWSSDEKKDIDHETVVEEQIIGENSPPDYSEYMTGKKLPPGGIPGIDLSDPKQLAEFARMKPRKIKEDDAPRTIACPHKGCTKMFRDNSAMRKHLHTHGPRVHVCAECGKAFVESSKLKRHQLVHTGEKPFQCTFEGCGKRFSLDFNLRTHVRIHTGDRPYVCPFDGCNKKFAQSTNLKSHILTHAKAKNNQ
Sequence of YY1 labelled with NTA ATTO 550 (P25490 whole entry): as above

B1: CNTNAP2 DNA (dsDNA)
DNA 1: TTTGATTGTTTACTTTGTTC
DNA 2: GAACAAAGTAAACAATCAAA
For B1, the binding result with FOXP2 FHD [1] is on record as “binds”.

B2: AAV P5 DNA (dsDNA)
DNA 1: AGGGTCTCCATTTTGAAGCG
DNA 2: CGCTTCAAAATGGAGACCCT
Turning to B2, the binding result with FOXP2 FHD [2] was “no binding”. The Kd in series [3] is 3.7 ± 0.4 µM.

B3: FOXP2 forkhead domain (FHD) (domain or fragment, UniProt O15409 504-594, looked up)
chain: RPPFTYATLIRQAIMESSDRQLTLNEIYSWFTRTFAYFRRNAATWKNAVRHNLSLHKCFVRVENVKGAVWTVDEVEYQKRRSQKITGSPTL
notes: also called FOXP2 FHD; forkhead box P2 forkhead domain; source: T7 cells (Genscript), pET-11A plasmid, purified (IMAC on nickel; His-tag removed with thrombin, benzamidine and HiTrap columns); not shown: His6, N-terminal, cleaved
On to B3, for which the Kd is 58 ± 6 µM in series [4], roughly 67 µM in series [5], roughly 28 µM in series [6] and roughly 73 µM in series [7].
